In patent US20260062488A1:
pEC50, pIC50: −log10 of the molar value. Several values for one entry are separate records, joined by “and”; a condition that tells them apart may be missing. Equal values may be shown once. Read-outs that look alike come from different tables or passages of the source.

Key:
[1] = target: cynomolgus α4β7 integrin (cynomolgus monkey); experiment: FACS, cyno CD4+ naïve
[2] = target: cynomolgus α4β7 integrin (cynomolgus monkey); experiment: FACS, cyno CD4+ total
[3] = target: cynomolgus α4β7 integrin (cynomolgus monkey); experiment: FACS, cyno CD8+ naïve
[4] = target: cynomolgus α4β7 integrin (cynomolgus monkey); experiment: FACS, cyno CD8+ total
[5] = target: cynomolgus α4β7 integrin (cynomolgus monkey); experiment: FACS, cyno CD8+ memory
[6] = target: human α4β7 integrin (human) (UniProt P13612); experiment: FACS, human CD4+ naïve
[7] = target: human α4β7 integrin (human) (UniProt P13612); experiment: FACS, human CD4+ total
[8] = target: human α4β7 integrin (human) (UniProt P13612); experiment: FACS, human CD8+ naïve
[9] = target: human α4β7 integrin (human) (UniProt P13612); experiment: FACS, human CD8+ total
[10] = target: human α4β7 integrin (human) (UniProt P13612); experiment: flow cytometry, HuT78 cells
[11] = target: human α4β7 integrin (human) (UniProt P13612); experiment: FACS titration on BaF3-hα4β7
[12] = target: human α4β7 integrin (human) (UniProt P13612); experiment: binding to human lymphocytes
[13] = target: human α4β7 integrin (human) (UniProt P13612); experiment: ELISA on coated α4β7+GFP+VLPs
[14] = target: cynomolgus αEβ7 integrin (cynomolgus monkey); experiment: FACS, 1 µg/ml, BaF3-cαEβ7 cells
[15] = target: human α4β7 integrin (human) (UniProt P13612); experiment: FACS, 1 µg/ml, BaF3-hα4β7 cells
[16] = target: human αEβ7 integrin (human) (UniProt P38570); experiment: FACS, 1 µg/ml, BaF3-hαEβ7 cells
[17] = target: cynomolgus αEβ7 integrin (cynomolgus monkey); experiment: FACS, 1 µg/ml, BaF3-cαEβ7 cells; remark: listed apart in the source
[18] = target: human α4β7 integrin (human) (UniProt P13612); experiment: FACS, 1 µg/ml, BaF3-hα4β7 cells; remark: listed apart in the source
[19] = target: human αEβ7 integrin (human) (UniProt P38570); experiment: FACS, 1 µg/ml, BaF3-hαEβ7 cells; remark: listed apart in the source
[20] = target: cynomolgus α4β7 integrin (cynomolgus monkey); experiment: FACS, 1 µg/ml, CHOK1-cα4β7 cells
[21] = target: human α4β1 integrin (human) (UniProt P05556); experiment: FACS, 1 µg/ml, CHOK1-hα4β1 cells
[22] = target: mouse α4β7 integrin (mouse) (UniProt Q00651); experiment: FACS, 1 µg/ml, CHOK1-mα4β7 cells
[23] = target: cynomolgus α4β7 integrin (cynomolgus monkey); experiment: FACS, 1 µg/ml, CHOK1-cα4β7 cells; remark: listed apart in the source
[24] = target: human α4β1 integrin (human) (UniProt P05556); experiment: FACS, 1 µg/ml, CHOK1-hα4β1 cells; remark: listed apart in the source
[25] = target: human α4β7 integrin (human) (UniProt P13612); experiment: FACS, primary human CD4+ memory T cells
[26] = target: human α4β7 integrin (human) (UniProt P13612); experiment: blockade of HuT78 cell adhesion to MAdCAM-1
[27] = target: human α4β7 integrin (human) (UniProt P13612); experiment: blockade of HuT78 cell adhesion to MAdCAM-1; remark: listed apart in the source
[28] = target: cynomolgus α4β7 integrin (cynomolgus monkey); experiment: blockade of CHOK1/cα4β7 adhesion to MAdCAM-1
[29] = target: cynomolgus α4β7 integrin (cynomolgus monkey); experiment: blockade of CHOK1-cα4β7 cell adhesion to MAdCAM-1
[30] = target: cynomolgus α4β7 integrin (cynomolgus monkey); experiment: blockade of CHOK1-cα4β7 cell adhesion to MAdCAM-1; remark: listed apart in the source
[31] = target: human α4β7 integrin (human) (UniProt P13612); experiment: blockade of MAdCAM-1 mediated HuT78 cell adhesion
[32] = target: human α4β7 integrin (human) (UniProt P13612); experiment: virion capture, Protein G plate, HIV BCF06, p24 gag
[33] = target: human α4β7 integrin (human) (UniProt P13612); experiment: virion capture, Protein G plate, HIV CMU08, p24 gag
[34] = target: human α4β7 integrin (human) (UniProt P13612); experiment: virion capture, Protein G plate, HIV NL4-3, p24 gag
[35] = target: human α4β7 integrin (human) (UniProt P13612); experiment: virion capture, Protein G plate, HIV RU570, p24 gag
[36] = target: human α4β7 integrin (human) (UniProt P13612); experiment: virion capture, Protein G plate, HIV YBF30, p24 gag
[37] = target: human α4β7 integrin (human) (UniProt P13612); experiment: HuT78 cells, FACS-based blockade of MAdCAM-1 binding
[38] = target: human α4β7 integrin (human) (UniProt P13612); experiment: competitive FACS, 50x excess of non-labelled competitor Ab-m1
[39] = target: human α4β7 integrin (human) (UniProt P13612); experiment: competitive FACS, 50x excess of non-labelled competitor Ab-Abri
[40] = target: human α4β7 integrin (human) (UniProt P13612); experiment: competitive FACS, 50x excess of non-labelled competitor Ab-Etro
[41] = target: human α4β7 integrin (human) (UniProt P13612); experiment: competitive FACS, 50x excess of non-labelled competitor Ab-Vedo
[42] = target: human α4β7 integrin (human) (UniProt P13612); experiment: blockade of RPMI 8866 cell binding to immobilised gp120-V2 WT peptide
[43] = target: human α4β7 integrin (human) (UniProt P13612); experiment: human lymphocytes, printed as plate-based cell adhesion blockade to MAdCAM-1
[44] = target: human α4β7 integrin (human) (UniProt P13612); experiment: row IC50 (pM) HuT78 of the binning table (assay not explained, presumably adhesion to MAdCAM-1)
[45] = target: human α4β7 integrin (human) (UniProt P13612); experiment: ELISA on plates coated with α4β7+GFP+VLPs; table drawn under the plot, without unit: unit from the axis '[Ab] (nM)'; the text prints the rounded 0.058 nM
[46] = target: human α4β7 integrin (human) (UniProt P13612); experiment: blockade of HuT78 cell adhesion to plate-bound MAdCAM-1, representative experiment; the two IC50 lines under the plot bear no name: the higher one is given to Ab-Vedo, whose curve lies right of Ab-m1's (midpoint near log -1.8 ug/ml)
[47] = target: cynomolgus α4β7 integrin (cynomolgus monkey); experiment: blockade of CHOK1-cα4β7 cell adhesion to MAdCAM-1, representative experiment; the two IC50 lines under the plot bear no name: the higher one is given to Ab-Vedo, whose curve lies clearly right of Ab-m1's (midpoint near log -0.9 ug/ml)
[48] = target: human α4β7 integrin (human) (UniProt P13612); experiment: cell-based or functional assay

Ab-Vedo (antibody), sequence (VH): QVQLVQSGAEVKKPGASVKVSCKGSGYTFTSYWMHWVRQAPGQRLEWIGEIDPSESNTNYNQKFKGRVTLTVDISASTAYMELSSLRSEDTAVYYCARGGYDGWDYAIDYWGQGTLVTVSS
Ab-Vedo (antibody), sequence (VL): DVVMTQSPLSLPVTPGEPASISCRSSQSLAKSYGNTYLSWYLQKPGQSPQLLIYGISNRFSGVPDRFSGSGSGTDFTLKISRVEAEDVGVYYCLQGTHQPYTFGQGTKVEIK
mouse α4β7 integrin (mouse), sequence (Q00651 41-1039, chain 1 of 2): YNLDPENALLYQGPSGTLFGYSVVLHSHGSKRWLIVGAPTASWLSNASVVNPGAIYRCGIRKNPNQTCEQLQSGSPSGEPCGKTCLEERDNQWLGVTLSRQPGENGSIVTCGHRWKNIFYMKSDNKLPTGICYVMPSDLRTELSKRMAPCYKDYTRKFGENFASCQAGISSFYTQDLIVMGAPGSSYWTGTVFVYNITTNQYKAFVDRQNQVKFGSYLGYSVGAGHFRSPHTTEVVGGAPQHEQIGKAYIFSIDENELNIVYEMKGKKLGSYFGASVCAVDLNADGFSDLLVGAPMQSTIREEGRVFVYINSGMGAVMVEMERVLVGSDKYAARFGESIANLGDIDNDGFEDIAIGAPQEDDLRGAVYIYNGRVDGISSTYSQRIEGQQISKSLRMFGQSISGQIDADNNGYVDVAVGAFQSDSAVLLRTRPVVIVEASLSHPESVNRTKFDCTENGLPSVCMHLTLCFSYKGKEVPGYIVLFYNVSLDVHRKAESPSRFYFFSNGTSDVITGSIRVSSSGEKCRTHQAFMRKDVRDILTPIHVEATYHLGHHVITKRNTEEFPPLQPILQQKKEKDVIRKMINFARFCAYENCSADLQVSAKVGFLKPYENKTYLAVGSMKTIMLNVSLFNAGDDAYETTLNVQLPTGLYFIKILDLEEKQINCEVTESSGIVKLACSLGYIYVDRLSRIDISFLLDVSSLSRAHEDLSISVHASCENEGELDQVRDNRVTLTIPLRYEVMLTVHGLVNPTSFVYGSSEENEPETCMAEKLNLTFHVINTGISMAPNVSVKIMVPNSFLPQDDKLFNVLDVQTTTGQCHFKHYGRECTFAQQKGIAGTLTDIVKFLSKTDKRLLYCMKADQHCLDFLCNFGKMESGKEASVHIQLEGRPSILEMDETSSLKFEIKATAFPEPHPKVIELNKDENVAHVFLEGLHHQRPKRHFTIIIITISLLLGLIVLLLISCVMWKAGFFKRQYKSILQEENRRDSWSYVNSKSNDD
mouse α4β7 integrin (mouse), sequence (P26011 20-806, chain 2 of 2, further chain): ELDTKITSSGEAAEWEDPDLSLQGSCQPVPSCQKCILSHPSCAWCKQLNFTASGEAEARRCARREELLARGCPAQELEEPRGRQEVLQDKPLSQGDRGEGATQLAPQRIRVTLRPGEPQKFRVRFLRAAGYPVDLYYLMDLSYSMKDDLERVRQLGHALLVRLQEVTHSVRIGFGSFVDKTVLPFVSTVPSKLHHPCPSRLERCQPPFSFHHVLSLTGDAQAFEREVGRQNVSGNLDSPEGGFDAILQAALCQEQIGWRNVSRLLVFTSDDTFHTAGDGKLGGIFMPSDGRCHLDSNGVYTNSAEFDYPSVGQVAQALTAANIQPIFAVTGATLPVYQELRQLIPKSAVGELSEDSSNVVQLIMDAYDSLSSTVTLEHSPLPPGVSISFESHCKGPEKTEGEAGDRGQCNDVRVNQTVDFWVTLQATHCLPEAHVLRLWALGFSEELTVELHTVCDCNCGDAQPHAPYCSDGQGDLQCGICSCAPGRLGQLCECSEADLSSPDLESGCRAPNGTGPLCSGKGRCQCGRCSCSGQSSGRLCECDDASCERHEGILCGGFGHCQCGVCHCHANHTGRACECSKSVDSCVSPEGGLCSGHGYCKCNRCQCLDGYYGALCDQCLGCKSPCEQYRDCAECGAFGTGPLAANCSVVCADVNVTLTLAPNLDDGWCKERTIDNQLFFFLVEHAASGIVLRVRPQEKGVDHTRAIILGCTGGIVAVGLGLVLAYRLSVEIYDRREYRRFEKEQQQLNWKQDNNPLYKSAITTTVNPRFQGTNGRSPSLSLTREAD

**Q.** With Ab-Vedo (antibody) as the substance, how does the pEC50 [1] read?
**A.** 9.64

**Q.** And the pEC50 [2]?
**A.** 9.69

**Q.** What about the pEC50 [3] of the same substance?
**A.** 9.59

**Q.** What about the pEC50 [4] of the same substance?
**A.** 9.70

**Q.** What about the pEC50 [5] of the same substance?
**A.** 9.69

**Q.** What about the pEC50 [6] of the same substance?
**A.** 9.42

**Q.** What about the pEC50 [7] of the same substance?
**A.** 9.42

**Q.** What about the pEC50 [8] of the same substance?
**A.** 9.14

**Q.** What about the pEC50 [9] of the same substance?
**A.** 9.18

**Q.** What about the pEC50 [10] of the same substance?
**A.** 9.04

**Q.** And the pEC50 [11]?
**A.** 9.15

**Q.** What about the Max MFI [11] of the same substance?
**A.** 848 MFI

**Q.** What about the pEC50 [12] of the same substance?
**A.** 9.30

**Q.** What about the pEC50 [13] of the same substance?
**A.** 10.24

**Q.** And the FACS MFI [14]?
**A.** 57.2 MFI

**Q.** What about the FACS MFI [15] of the same substance?
**A.** 707 MFI

**Q.** And the FACS MFI [16]?
**A.** 11.6 MFI

**Q.** And the FACS MFI [17]?
**A.** 60.9 MFI

**Q.** What about the FACS MFI [18] of the same substance?
**A.** 153 MFI

**Q.** And the FACS MFI [19]?
**A.** 19.5 MFI

**Q.** And the FACS MFI [20]?
**A.** 101 MFI

**Q.** And the FACS MFI [21]?
**A.** 4.23 MFI

**Q.** What about the FACS MFI [22] of the same substance?
**A.** 2.91 MFI

**Q.** And the FACS MFI [23]?
**A.** 46.5 MFI

**Q.** What about the FACS MFI [24] of the same substance?
**A.** 2.87 MFI

**Q.** And the pEC50 [25]?
**A.** 10.36

**Q.** What about the pIC50 [26] of the same substance?
**A.** 10.02

**Q.** What about the Max inhibition (%) [26] of the same substance?
**A.** 86.5%

**Q.** And the pIC50 [27]?
**A.** 10.24

**Q.** And the Max inhibition (%) [27]?
**A.** 94.7%

**Q.** And the pIC50 [28]?
**A.** 9.92

**Q.** And the pIC50 [29]?
**A.** 9.25

**Q.** What about the Max inhibition (%) [29] of the same substance?
**A.** 76%

**Q.** What about the pIC50 [30] of the same substance?
**A.** 9.27

**Q.** What about the Max inhibition (%) [30] of the same substance?
**A.** 94.4%

**Q.** And the pIC50 [31]?
**A.** 10.51 and 10.22

**Q.** What about the EC50 [32] of the same substance?
**A.** 0.37 nM and 0.056 µg/mL

**Q.** And the EC50 [33]?
**A.** 0.5 nM and 0.075 µg/mL

**Q.** And the EC50 [34]?
**A.** 0.34 nM and 0.05 µg/mL

**Q.** What about the EC50 [35] of the same substance?
**A.** 0.32 nM and 0.048 µg/mL

**Q.** What about the EC50 [36] of the same substance?
**A.** 0.48 nM and 0.072 µg/mL

**Q.** And the pIC50 [37]?
**A.** 9.71

**Q.** What about the percentage of binding inhibition [38] of the same substance?
**A.** 76%

**Q.** What about the percentage of binding inhibition [39] of the same substance?
**A.** 89%

**Q.** And the percentage of binding inhibition [40]?
**A.** 18%

**Q.** What about the percentage of binding inhibition [41] of the same substance?
**A.** 88%

**Q.** And the IC50 [42]?
**A.** 0.042 µg/mL

**Q.** What about the pIC50 [43] of the same substance?
**A.** 9.20

**Q.** And the pIC50 [44]?
**A.** 10.05

**Q.** And the pEC50 [45]?
**A.** 10.24

**Q.** And the pIC50 [46]?
**A.** 10.01

**Q.** And the pIC50 [47]?
**A.** 9.09

**Q.** For “MAdCAM-1 (R&D systems) (from UniProt Q13477 19-317) (ligand)”, which activated (Ki67+CD25+) human primary CD4+ T cells with plate bound anti-CD3 and MAdCAM-1 (22.6% with anti-CD3 alone) [48] is on record?
**A.** 56.6%
